Assay results: US20150064789

Tests used:
Test in all cases: cell_activity
[1] = tested on: CCR5 ZFN pair, wild-type ZC linker (8266 with partner) (artificial); conditions: average of 2
[2] = tested on: CCR5 ZFN pair, L6a linker (artificial); conditions: average of 2
[3] = tested on: CCR5 ZFN pair, L7a linker (artificial); conditions: average of 2
[4] = tested on: mROSA ZFN pair, Wt/Wt linkers (artificial); conditions: Neuro2A, CEL-I; replicates 23.2, 18.7; mock 0.4
[5] = tested on: mROSA ZFN pair, Wt/L7a linkers (artificial); conditions: Neuro2A, CEL-I; mock 0.4
[6] = tested on: rat IgM ZFN pair, L7a linker (artificial); conditions: rat C6 cells, CEL-I
[7] = tested on: rat IgM ZFN pair, ZC linkers (artificial); conditions: rat C6 cells, CEL-I

Substance	activity [1]	activity [2]	activity [3]	further results
CCR5 target, 4 bp gap	1.2 % NHEJ			
CCR5 target, 5 bp gap	35 % NHEJ	39.3 % NHEJ		
CCR5 target, 6 bp gap	11.1 % NHEJ	25.4 % NHEJ	31.8 % NHEJ	
GTCATCCTCATCCTGAGTTTAAACTGCAAAAG (double strand) [CCR5 target, 8 bp gap]			6.1 % NHEJ	
GTCATCCTCATCCTGGTTTAAACTGCAAAAG (double strand) [CCR5 target, 7 bp gap]		5.1 % NHEJ	39.6 % NHEJ	
mROSA target, 6 bp gap				activity [4]: 22.6 % NHEJ; activity [5]: 7.5 % NHEJ
rat IgM target, 6 bp gap				activity [6]: 2.43 % NHEJ; activity [7]: 1.93 % NHEJ
